Reference: doi:10.1101/2024.07.01.601608 (bioRxiv, 2024)

B1: MED14 (endogenous) (natural protein)
chain: not shown

How the values were obtained:
[1] = target: T1, MED13 (endogenous) (human (endogenous in 293-F), UniProt Q9UHV7 1-2174); assay: cross-linking
[2] = target: recombinant human CDK8-Flag (baculovirus) (human, UniProt P49336 1-464); assay: cryo-EM structure
[3] = target: recombinant human MED12-HA (baculovirus) (human, UniProt Q93074 1-2177); assay: cryo-EM structure
[4] = target: MED12 (endogenous) (human (endogenous in 293-F), UniProt Q93074 1-2177); assay: cross-linking
[5] = target: MED13L (endogenous) (human (endogenous in 293-F), UniProt Q71F56 1-2210); assay: cross-linking
Sequence of MED13L (endogenous) (Q71F56 whole entry): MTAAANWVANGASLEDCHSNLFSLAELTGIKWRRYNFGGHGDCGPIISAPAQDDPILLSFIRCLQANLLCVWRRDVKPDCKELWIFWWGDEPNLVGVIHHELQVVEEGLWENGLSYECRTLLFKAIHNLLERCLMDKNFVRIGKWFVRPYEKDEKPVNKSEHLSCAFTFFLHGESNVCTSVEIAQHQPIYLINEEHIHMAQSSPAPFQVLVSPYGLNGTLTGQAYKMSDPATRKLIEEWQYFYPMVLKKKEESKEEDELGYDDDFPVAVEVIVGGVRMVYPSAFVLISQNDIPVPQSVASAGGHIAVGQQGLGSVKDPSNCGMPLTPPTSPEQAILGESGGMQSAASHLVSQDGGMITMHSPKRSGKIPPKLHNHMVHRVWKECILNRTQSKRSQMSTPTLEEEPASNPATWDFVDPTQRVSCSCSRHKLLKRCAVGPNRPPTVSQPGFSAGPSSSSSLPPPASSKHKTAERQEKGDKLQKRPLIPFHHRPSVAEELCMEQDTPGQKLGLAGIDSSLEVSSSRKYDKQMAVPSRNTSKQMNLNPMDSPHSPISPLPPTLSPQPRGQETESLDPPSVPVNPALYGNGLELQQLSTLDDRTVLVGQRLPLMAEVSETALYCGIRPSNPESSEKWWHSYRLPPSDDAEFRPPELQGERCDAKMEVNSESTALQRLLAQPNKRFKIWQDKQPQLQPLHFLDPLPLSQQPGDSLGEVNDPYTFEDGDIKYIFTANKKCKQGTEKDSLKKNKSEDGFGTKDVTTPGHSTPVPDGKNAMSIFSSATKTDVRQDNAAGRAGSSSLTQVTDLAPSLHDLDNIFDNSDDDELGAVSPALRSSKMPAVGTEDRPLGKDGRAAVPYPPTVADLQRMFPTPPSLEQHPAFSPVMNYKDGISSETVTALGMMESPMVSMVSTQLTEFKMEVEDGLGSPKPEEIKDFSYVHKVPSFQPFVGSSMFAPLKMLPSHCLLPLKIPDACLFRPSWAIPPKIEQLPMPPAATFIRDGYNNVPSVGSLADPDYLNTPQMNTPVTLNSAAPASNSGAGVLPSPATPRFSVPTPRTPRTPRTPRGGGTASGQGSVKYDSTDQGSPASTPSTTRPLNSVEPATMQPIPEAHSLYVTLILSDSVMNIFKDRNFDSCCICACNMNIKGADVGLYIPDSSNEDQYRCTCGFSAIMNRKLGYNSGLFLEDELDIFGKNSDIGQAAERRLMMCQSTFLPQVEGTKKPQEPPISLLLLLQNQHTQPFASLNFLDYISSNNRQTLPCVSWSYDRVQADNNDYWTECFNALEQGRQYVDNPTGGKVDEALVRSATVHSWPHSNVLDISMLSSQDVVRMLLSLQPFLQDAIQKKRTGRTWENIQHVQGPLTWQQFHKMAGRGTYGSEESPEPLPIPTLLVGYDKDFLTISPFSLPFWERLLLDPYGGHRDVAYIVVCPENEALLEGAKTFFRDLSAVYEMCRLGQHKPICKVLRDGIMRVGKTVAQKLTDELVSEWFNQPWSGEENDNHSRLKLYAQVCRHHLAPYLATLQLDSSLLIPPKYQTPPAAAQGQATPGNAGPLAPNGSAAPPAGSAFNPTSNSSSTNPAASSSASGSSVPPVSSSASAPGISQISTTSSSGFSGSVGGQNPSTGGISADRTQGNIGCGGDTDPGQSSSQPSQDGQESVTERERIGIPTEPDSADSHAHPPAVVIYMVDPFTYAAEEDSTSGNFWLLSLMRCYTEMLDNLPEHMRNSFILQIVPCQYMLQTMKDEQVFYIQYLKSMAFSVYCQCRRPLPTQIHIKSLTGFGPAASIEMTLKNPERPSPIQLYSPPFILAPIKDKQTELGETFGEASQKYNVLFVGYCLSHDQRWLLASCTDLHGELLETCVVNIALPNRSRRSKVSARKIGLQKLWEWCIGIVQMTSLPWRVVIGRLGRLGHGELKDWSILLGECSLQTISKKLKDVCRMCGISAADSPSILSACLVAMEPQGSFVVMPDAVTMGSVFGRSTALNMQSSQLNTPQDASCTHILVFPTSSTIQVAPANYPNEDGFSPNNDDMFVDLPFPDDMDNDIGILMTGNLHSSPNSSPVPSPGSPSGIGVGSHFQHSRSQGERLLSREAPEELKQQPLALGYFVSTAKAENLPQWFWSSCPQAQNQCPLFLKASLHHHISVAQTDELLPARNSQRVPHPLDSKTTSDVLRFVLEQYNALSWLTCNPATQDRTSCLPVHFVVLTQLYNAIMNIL

[6] = target: MED12L (endogenous) (human (endogenous in 293-F), UniProt Q86YW9 1-2145); assay: cross-linking
[7] = target: B1; assay: cryo-EM structure
[8] = target: T1, MED13 (endogenous); assay: cryo-EM structure

T1 sequence (Q9UHV7 whole entry): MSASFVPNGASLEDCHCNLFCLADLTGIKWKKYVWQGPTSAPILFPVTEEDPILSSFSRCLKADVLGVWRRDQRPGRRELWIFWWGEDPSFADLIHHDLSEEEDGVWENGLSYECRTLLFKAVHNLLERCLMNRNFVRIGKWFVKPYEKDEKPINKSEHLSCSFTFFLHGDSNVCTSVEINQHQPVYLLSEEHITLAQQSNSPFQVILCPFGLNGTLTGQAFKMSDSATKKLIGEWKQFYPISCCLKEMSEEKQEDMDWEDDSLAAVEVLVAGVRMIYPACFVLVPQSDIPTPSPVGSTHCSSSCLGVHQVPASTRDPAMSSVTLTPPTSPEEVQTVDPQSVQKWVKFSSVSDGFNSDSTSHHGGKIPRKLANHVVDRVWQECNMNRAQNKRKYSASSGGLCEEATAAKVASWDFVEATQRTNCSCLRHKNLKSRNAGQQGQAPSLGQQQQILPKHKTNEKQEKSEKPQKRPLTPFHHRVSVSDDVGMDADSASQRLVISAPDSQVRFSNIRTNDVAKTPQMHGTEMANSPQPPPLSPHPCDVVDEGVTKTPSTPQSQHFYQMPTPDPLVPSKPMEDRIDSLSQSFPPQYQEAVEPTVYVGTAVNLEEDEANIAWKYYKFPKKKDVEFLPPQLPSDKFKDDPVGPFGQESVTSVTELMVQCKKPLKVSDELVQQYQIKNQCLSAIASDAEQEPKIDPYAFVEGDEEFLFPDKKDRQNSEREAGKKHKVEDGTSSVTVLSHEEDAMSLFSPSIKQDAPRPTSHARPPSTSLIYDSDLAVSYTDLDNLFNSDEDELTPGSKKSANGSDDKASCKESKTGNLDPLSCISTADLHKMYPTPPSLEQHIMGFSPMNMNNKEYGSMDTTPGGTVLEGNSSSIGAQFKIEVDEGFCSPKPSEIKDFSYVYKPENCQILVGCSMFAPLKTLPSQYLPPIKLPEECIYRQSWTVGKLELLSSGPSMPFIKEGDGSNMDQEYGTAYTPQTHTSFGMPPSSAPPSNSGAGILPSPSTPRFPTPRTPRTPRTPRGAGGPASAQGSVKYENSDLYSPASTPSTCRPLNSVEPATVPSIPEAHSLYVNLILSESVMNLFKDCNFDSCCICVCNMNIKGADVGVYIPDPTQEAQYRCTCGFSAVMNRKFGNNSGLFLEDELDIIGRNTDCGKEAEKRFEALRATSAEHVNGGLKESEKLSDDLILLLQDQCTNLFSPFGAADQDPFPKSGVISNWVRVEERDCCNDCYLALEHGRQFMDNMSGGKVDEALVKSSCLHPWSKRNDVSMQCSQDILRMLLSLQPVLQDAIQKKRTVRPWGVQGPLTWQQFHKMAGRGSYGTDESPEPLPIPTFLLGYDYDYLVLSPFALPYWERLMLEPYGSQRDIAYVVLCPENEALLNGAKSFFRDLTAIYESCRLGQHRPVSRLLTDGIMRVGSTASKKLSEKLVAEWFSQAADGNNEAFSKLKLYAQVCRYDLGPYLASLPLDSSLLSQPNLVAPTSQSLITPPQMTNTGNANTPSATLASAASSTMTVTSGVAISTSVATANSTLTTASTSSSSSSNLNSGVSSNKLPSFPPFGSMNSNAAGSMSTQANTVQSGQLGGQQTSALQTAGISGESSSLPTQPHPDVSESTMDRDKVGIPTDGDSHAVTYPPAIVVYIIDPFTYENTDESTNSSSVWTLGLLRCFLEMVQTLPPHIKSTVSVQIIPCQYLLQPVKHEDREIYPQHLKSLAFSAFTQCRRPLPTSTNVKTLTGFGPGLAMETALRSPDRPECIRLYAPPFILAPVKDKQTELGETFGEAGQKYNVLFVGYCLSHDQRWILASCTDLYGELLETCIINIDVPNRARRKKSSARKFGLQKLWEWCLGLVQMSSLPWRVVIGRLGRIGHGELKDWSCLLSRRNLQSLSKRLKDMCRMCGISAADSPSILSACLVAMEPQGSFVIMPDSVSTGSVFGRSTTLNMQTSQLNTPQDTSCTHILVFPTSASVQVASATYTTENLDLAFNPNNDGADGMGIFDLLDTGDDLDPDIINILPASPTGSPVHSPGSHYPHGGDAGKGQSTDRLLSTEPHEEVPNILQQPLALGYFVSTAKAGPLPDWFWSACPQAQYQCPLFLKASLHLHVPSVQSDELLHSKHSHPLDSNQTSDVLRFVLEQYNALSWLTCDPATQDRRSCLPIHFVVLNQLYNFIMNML
Sequence of recombinant human CDK8-Flag (baculovirus) (P49336 whole entry): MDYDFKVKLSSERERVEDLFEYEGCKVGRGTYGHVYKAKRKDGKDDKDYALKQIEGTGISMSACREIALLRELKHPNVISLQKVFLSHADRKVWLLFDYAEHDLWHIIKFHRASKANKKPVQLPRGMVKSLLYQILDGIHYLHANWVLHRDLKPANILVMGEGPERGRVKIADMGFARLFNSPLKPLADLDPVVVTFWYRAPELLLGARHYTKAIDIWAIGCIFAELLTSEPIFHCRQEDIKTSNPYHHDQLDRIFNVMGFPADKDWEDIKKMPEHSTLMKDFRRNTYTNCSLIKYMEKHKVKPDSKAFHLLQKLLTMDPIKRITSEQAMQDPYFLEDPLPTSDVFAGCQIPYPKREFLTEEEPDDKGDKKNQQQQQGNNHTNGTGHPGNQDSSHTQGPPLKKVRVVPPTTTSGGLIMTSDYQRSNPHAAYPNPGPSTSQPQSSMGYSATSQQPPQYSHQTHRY

Binder | binding result [1] | binding result [4] | binding result [5] | other results
MED31 (endogenous) (natural protein) MAAAVAMETDDAGNRLRFQLELEFVQCLANPNYLNFLAQRGYFKDKAFVNYLKYLLYWKDPEYAKYLKYPQCLHMLELLQYEHFRKELVNAQCAKFIDEQQILHWQHYSRKRMRLQQALAEQQQQNNTSGK | binds | – | – | –
recombinant human CCNC-6xHis (baculovirus) (natural protein) MAGNFWQSSHYLQWILDKQDLLKERQKDLKFLSEEEYWKLQIFFTNVIQALGEHLKLRQQVIATATVYFKRFYARYSLKSIDPVLMAPTCVFLASKVEEFGVVSNTRLIAAATSVLKTRFSYAFPKEFPYRMNHILECEFYLLELMDCCLIVYHPYRPLLQYVQDMGQEDMLLPLAWRIVNDTYRTDLCLLYPPFMIALACLHVACVVQQKDARQWFAELSVDMEKILEIIRVILKLYEQWKNFDERKEMATILSKMPKPKPPPNSEGEQGPNGSQNSSYSQS | – | – | – | binding result [2]: binds; binding result [3]: binds
CCNC (endogenous) (natural protein) MAGNFWQSSHYLQWILDKQDLLKERQKDLKFLSEEEYWKLQIFFTNVIQALGEHLKLRQQVIATATVYFKRFYARYSLKSIDPVLMAPTCVFLASKVEEFGVVSNTRLIAAATSVLKTRFSYAFPKEFPYRMNHILECEFYLLELMDCCLIVYHPYRPLLQYVQDMGQEDMLLPLAWRIVNDTYRTDLCLLYPPFMIALACLHVACVVQQKDARQWFAELSVDMEKILEIIRVILKLYEQWKNFDERKEMATILSKMPKPKPPPNSEGEQGPNGSQNSSYSQS | – | binds | – | –
B1 | – | – | binds | –
MED18 (endogenous) (natural protein) MEAPPVTMMPVTGGTINMMEYLLQGSVLDHSLESLIHRLRGLCDNMEPETFLDHEMVFLLKGQQASPFVLRARRSMDRAGAPWHLRYLGQPEMGDKNRHALVRNCVDIATSENLTDFLMEMGFRMDHEFVAKGHLFRKGIMKIMVYKIFRILVPGNTDSTEALSLSYLVELSVVAPAGQDMVSDDMKNFAEQLKPLVHLEKIDPKRLM | – | – | binds | –
MED6 (endogenous) (natural protein) MAAVDIRDNLLGISWVDSSWIPILNSGSVLDYFSERSNPFYDRTCNNEVVKMQRLTLEHLNQMVGIEYILLHAQEPILFIIRKQQRQSPAQVIPLADYYIIAGVIYQAPDLGSVINSRVLTAVHGIQSAFDEAMSYCRYHPSKGYWWHFKDHEEQDKVRPKAKRKEEPSSIFQRQRVDALLLDLRQKFPPKFVQLKPGEKPVPVDQTKKEAEPIPETVKPEEKETTKNVQQTVSAKGPPEKRMRLQ | binds | – | binds | –
MED17 (endogenous) (natural protein) MSGVRAVRISIESACEKQVHEVGLDGTETYLPPLSMSQNLARLAQRIDFSQGSGSEEEEAAGTEGDAQEWPGAGSSADQDDEEGVVKFQPSLWPWDSVRNNLRSALTEMCVLYDVLSIVRDKKFMTLDPVSQDALPPKQNPQTLQLISKKKSLAGAAQILLKGAERLTKSVTENQENKLQRDFNSELLRLRQHWKLRKVGDKILGDLSYRSAGSLFPHHGTFEVIKNTDLDLDKKIPEDYCPLDVQIPSDLEGSAYIKVSIQKQAPDIGDLGTVNLFKRPLPKSKPGSPHWQTKLEAAQNVLLCKEIFAQLSREAVQIKSQVPHIVVKNQIISQPFPSLQLSISLCHSSNDKKSQKFATEKQCPEDHLYVLEHNLHLLIREFHKQTLSSIMMPHPASAPFGHKRMRLSGPQAFDKNEINSLQSSEGLLEKIIKQAKHIFLRSRAAATIDSLASRIEDPQIQAHWSNINDVYESSVKVLITSQGYEQICKSIQLQLNIGVEQIRVVHRDGRVITLSYQEQELQDFLLSQMSQHQVHAVQQLAKVMGWQVLSFSNHVGLGPIESIGNASAITVASPSGDYAISVRNGPESGSKIMVQFPRNQCKDLPKSDVLQDNKWSHLRGPFKEVQWNKMEGRNFVYKMELLMSALSPCLL | – | – | binds | –
MED10 (endogenous) (natural protein) MAEKFDHLEEHLEKFVENIRQLGIIVSDFQPSSQAGLNQKLNFIVTGLQDIDKCRQQLHDITVPLEVFEYIDQGRNPQLYTKECLERALAKNEQVKGKIDTMKKFKSLLIQELSKVFPEDMAKYRSIRGEDHPPS | binds | binds | – | binding result [6]: binds; binding result [7]: binds
MED22 (endogenous) (natural protein) MAQQRALPQSKETLLQSYNKRLKDDIKSIMDNFTEIIKTAKIEDETQVSRATQGEQDNYEMHVRAANIVRAGESLMKLVSDLKQFLILNDFPSVNEAIDQRNQQLRTLQEECDRKLITLRDEISIDLYELEEEYYSSSSSLCEANDLPLCEAYGRLDLDTDSADGLSAPLLASPEPSAGPLQVAAPAHSHAGGPGPTEHA | – | – | binds | –
MED19 (endogenous) (natural protein) MENFTALFGAQADPPPPPTALGFGPGKPPPPPPPPAGGGPGTAPPPTAATAPPGADKSGAGCGPFYLMRELPGSTELTGSTNLITHYNLEQAYNKFCGKKVKEKLSNFLPDLPGMIDLPGSHDNSSLRSLIEKPPILSSSFNPITGTMLAGFRLHTGPLPEQCRLMHIQPPKKKNKHKHKQSRTQDPVPPETPSDSDHKKKKKKKEEDPDRKRKKKEKKKKKNRHSPDHPGMGSSQASSSSSLR | – | binds | – | binding result [7]: binds; binding result [8]: binds
